In article PMC9348671, “Structural elucidation of substrate-bound aminoglycoside acetyltransferase (3)-IIIa” (PLoS ONE, 2022):

Biological target: the molecule itself
Test: SEC; HiLoad Superdex 200 26/60 in 20 mM Tris pH 7.5, 150 mM NaCl; tag removed

B1: aminoglycoside acetyltransferase (3)-IIIa (enzyme)
chain: MTDLNIPHTHAHLVDAFQALGIRAGQALMLHASVKAVGAVMGGPNVILQALMDALTPDGTLMMYAGWQDIPDFIDSLPDALKAVYLEQHPPFDPATARAVRENSVLAEFLRTWPCVHRSANPEASMVAVGRQAALLTANHALDYGYGVESPLAKLVAIEGYVLMLGAPLDTITLLHHAEYLAKMRHKNVVRYPCPILRDGRKVWVTVEDYDTGDPHDDYSFEQIARDYVAQGGGTRGKVGDADAYLFAAQDLTRFAVQWLESRFGDSASYG
notes: AAC(3)-IIIa from Pseudomonas aeruginosa, GenBank CAA39184.1; gene synthesized with codons optimized for E. coli, in pET15b between NdeI and BamHI; Hexahistidine tag removed by thrombin; residues of the thrombin site and vector may be left at the N-terminus; Crystals held CoASH and an aminoglycoside (gentamicin, sisomicin or neomycin); also called AAC(3)-IIIa; iso^A; source: LOBSTR E. coli, …
  stoichiometry N: 2
